From paper PMC4471362
One block for each substance: values may come before it.

Legend:
[1] = tested on: Nc1ncnc2c1ncn2[C@@H]1O[C@H](COP(=O)(O)OP(=O)(O)OP(=O)(O)O)[C@@H](O)[C@H]1O; assay: purified protein; settings: basal ATPase, buffer presumably as for PfHsp70-z (pH 7.5, MgCl2), kcat unit as printed
[2] = target: Plasmodium falciparum Hsp70-z (PfHsp70-z), recombinant (His)6-PfHsp70-z (Plasmodium falciparum); assay: SPR; ProteOn XPR36, GLC chip, ligand immobilised by amine coupling (PfHsp70-z, 187 RU); analyte 125-2000 nM at 50 ul/min; 25°C; PBS-Tween with 20 mM EDTA, pH 7.4; no nucleotide; Langmuir model
[3] = target: Plasmodium falciparum Hsp70-z (PfHsp70-z), recombinant (His)6-PfHsp70-z (Plasmodium falciparum); assay: SPR; ProteOn XPR36, GLC chip, ligand immobilised by amine coupling (PfHsp70-z, 187 RU); analyte 125-2000 nM at 50 ul/min; 25°C; PBS-Tween with 20 mM EDTA, pH 7.4; with 5 mM ADP; Langmuir model
[4] = target: Plasmodium falciparum Hsp70-z (PfHsp70-z), recombinant (His)6-PfHsp70-z (Plasmodium falciparum); assay: SPR; ProteOn XPR36, GLC chip, ligand immobilised by amine coupling (PfHsp70-z, 187 RU); analyte 125-2000 nM at 50 ul/min; 25°C; PBS-Tween with 20 mM EDTA, pH 7.4; with 5 mM ATP; Langmuir model
hHsp70 (Homo sapiens) = hHsp70 (Homo sapiens) (UniProt P0DMV8); assay: SPR; settings: cited from earlier work

hHsp70, sequence (P0DMV8 2-641): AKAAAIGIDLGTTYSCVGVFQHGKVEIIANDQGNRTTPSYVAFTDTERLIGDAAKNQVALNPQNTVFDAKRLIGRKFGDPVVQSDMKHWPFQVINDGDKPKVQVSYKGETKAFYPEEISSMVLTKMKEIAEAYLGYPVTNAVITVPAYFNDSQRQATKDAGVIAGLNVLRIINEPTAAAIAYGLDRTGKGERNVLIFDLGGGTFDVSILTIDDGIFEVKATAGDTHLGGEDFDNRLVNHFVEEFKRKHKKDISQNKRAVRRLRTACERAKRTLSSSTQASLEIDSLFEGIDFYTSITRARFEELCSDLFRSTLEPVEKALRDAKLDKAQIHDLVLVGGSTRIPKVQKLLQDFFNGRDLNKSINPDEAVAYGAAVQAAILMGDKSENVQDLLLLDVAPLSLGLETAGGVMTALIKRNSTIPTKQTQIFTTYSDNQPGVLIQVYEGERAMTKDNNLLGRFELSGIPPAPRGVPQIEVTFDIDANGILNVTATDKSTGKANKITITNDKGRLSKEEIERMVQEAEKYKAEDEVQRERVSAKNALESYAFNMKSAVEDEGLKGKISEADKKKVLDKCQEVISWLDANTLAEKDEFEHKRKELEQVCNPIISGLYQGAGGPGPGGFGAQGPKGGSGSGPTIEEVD

Substance: PfHsp70-1 (Plasmodium falciparum 3D7)
Km [1]: 428 (+/- 5) μM | Vmax [1]: 0.0246 µmol/min/mg

Kd [2]: 7.97 nM | koff [2]: 9.54e-05 s⁻¹ | kon [2]: 12000 M⁻¹ s⁻¹ | Kd [3]: 11.5 nM | koff [3]: 7.6e-05 s⁻¹ | kon [3]: 6620 M⁻¹ s⁻¹ | Kd [4]: 11.3 nM | koff [4]: 3.2e-05 s⁻¹ | kon [4]: 2840 M⁻¹ s⁻¹
Substance: Plasmodium falciparum Hsp70-z (PfHsp70-z), recombinant (His)6-PfHsp70-z (natural protein)

Substance: hHsp70 (from UniProt P0DMV8)
Kd (hHsp70 (Homo sapiens)): 4.5 nM
